Laboratory results reported in article PMC11842806, “Molecular basis of foreign DNA recognition by BREX anti-phage immunity system” (Nature Communications, 2025).

T1: BrxX G785T/N823S (TRD variant) (Escherichia coli HS, UniProt P0DUF9 1-1205, G785T;N823S)
T1 sequence: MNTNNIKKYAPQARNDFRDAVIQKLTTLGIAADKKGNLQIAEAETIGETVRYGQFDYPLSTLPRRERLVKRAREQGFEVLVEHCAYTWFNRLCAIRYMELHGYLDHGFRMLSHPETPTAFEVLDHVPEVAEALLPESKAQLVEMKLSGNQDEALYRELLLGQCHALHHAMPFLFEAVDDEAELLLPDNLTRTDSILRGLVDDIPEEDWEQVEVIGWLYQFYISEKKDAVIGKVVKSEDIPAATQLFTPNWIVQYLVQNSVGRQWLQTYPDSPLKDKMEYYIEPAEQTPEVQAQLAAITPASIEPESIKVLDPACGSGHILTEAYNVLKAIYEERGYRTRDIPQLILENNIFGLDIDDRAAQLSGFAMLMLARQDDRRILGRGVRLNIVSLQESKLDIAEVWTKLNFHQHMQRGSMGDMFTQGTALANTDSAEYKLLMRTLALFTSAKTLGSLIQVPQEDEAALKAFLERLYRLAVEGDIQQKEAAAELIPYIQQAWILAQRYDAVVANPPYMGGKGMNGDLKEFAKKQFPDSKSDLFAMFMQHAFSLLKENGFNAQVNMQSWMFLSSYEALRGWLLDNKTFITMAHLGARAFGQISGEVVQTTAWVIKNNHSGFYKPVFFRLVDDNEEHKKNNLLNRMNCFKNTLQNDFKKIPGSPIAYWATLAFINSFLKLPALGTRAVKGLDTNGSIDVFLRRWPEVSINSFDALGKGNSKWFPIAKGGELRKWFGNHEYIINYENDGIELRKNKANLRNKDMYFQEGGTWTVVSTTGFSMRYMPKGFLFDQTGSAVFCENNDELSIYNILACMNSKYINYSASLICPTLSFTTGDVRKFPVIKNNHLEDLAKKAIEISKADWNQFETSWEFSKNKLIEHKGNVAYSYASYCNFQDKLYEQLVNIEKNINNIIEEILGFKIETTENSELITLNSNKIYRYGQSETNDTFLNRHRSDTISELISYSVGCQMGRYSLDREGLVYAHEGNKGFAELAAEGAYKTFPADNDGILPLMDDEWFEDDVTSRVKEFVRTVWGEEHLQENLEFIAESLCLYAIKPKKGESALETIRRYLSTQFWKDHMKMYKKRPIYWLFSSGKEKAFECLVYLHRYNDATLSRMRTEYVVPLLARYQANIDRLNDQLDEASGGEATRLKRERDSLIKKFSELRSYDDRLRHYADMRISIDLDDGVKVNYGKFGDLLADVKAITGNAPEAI


Molecular target: T1, BrxX G785T/N823S (TRD variant)
Experiment: EMSA; decreased affinity; EMSA: 20 nM Cy5-DNA, 0.5x TBE pH 8.0, 35 mM NaCl, 5% glycerol, +/-0.5 mM SAM or SAH, 30 min, room temperature; BLI: 20 mM Tris-HCl pH 8.0, 100 mM NaCl, 0.05 mg/mL BSA, 0.02% Tween-20, +/-0.5 mM SAM, 30 C
Details: protein: recombinant; tags: N-His6; label: 5'-Cy5 on strand 1; blunt

Row | Binder | binding result
1 | 40 bp BREX (dsDNA) DNA 1: TCAGTAGTCAAGTCAGTGGTAAGGTCAGGACAGGAGTCAG DNA 2: CTGACTCCTGTCCTGACCTTACCACTGACTTGACTACTGA | binds
2 | 40 bp BREX 4T (dsDNA) DNA 1: TCAGTAGTCAAGTCAGTGGTTAGGTCAGGACAGGAGTCAG DNA 2: CTGACTCCTGTCCTGACCTAACCACTGACTTGACTACTGA | binds
3 | 40 bp BREX 4C (dsDNA) DNA 1: TCAGTAGTCAAGTCAGTGGTCAGGTCAGGACAGGAGTCAG DNA 2: CTGACTCCTGTCCTGACCTGACCACTGACTTGACTACTGA | binds
4 | 40 bp BREX 4G (dsDNA) DNA 1: TCAGTAGTCAAGTCAGTGGTGAGGTCAGGACAGGAGTCAG DNA 2: CTGACTCCTGTCCTGACCTCACCACTGACTTGACTACTGA | binds
